Molecular target: Human CAIX (carbonic anhydrase IX) (human) (UniProt Q16790)
Assay: ELISA screening, biotinylated human CAIX 0.25 ug/ml, negative control wells

absorbance at 450 nm: 0.1 AU
Substance: negative control of the ELISA screening of the maturated library (designed binder)

Source: patent publication US20180230235A1
